Experimental data: the supplement of paper PMC10126150
± gives the standard deviation of the averaged measurements.

Tested on: ATP
Assay: switch fluorescence ratio, 500 uM ATP over buffer (Cy3 cluster intensity, sum of 5 cycles each) (fold (ratio)); higher = stronger signal-on switching upon ATP binding; sequences stand for … in TCGTCGGCAGCGTCAGATGTGTATAAGAGACAGTTTTTTTTTTTTTTTTTTTTTTTTT…TC
Settings: aptamer strand: ATP DNA aptamer (quencher-CACCTGGGGGAGTATTGCGGAGGAAGG + anchor), 100 nM annealed; ATP concentration: 500 uM
Procedure, shortened: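 For every switch-domain sequence, the fluorescence ratio is the mean of per-cluster values, each being summed target-cycle Cy3 intensity over summed buffer-cycle Cy3 intensity. Clusters outside 100-1000 RFU were excluded. On a modified Illumina MiSeq flow-cell, the Cy3-labelled switching-strand clusters were annealed to 100 nM quencher-labelled ATP aptamer, imaged in selection buffer and then after 15 min with 500 uM ATP at 22 °C. Five such cycles were run, with NaOH stripping and re-annealing between them.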
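Also: ATP exposure 15 min at 22 °C before imaging.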

Sequence	switch fluorescence ratio
GCTGATTTTT	0.994 ± 0.025
GCTGCAGGGG	1.144 ± 0.0063
GCTGCCACTA	1.003 ± 0.004
GCTGCCTAAA	0.9809 ± 0.0019
GCTGCGAGGT	1.012 ± 0.0056
GCTGCTAATA	1.039 ± 0.01
GCTGCTGCAC	1.01 ± 0.049
GCTGGAGTAT	0.987 ± 0.026
GCTGGCAATT	1.027 ± 0.0069
GCTGGGAATG	0.98 ± 0.033
GCTGGGAATT	1 ± 0.016
GCTGGGACGT	1 ± 0.025
GCTGGGACTT	1.004 ± 0.0078
GCTGGGAGGA	1.02 ± 0.04
GCTGGGATTG	1.01 ± 0.035
GCTGGGGCCA	1.023 ± 0.0017
GCTGGGGGAT	1 ± 0.044
GCTGGGGGCG	0.987 ± 0.025
GCTGGGTAGT	1.01 ± 0.022
GCTGGTGATC	1.02 ± 0.012
GCTGGTGCAC	1.01 ± 0.026
GCTGGTTGTT	1.03 ± 0.041
GCTGTAAGTT	0.9897 ± 0.0067
GCTGTAATCT	0.999 ± 0.027
GCTGTAGCGG	1.02 ± 0.031

Sequence	switch fluorescence ratio
GCTGTATGTT	0.974 ± 0.022
GCTGTATTAA	0.997 ± 0.038
GCTGTGGATG	1.02 ± 0.024
GCTGTGGGTG	1 ± 0.021
GCTGTGTGGC	1.01 ± 0.047
GCTGTGTGTC	1.006 ± 0.0024
GCTGTGTTTT	1 ± 0.034
GCTGTTCAAG	1 ± 0.026
GCTGTTCCTC	1.07 ± 0.011
GCTGTTGGCG	0.9728 ± 0.0043
GCTGTTTCGG	0.981 ± 0.01
GCTGTTTTGT	1.004 ± 0.0092
GCTTAAAAAT	0.986 ± 0.095
GCTTAAAGAC	1.1 ± 0.013
GCTTAAGTTA	1 ± 0.057
GCTTAATGTG	0.968 ± 0.027
GCTTACAACG	1.02 ± 0.029
GCTTACTCTG	1.62 ± 0.085
GCTTACTGCT	0.947 ± 0.029
GCTTATAGGC	0.97 ± 0.032
GCTTATCAGC	0.991 ± 0.013
GCTTATGGGA	1 ± 0.039
GCTTATTCAG	0.976 ± 0.013
GCTTATTGTA	0.9813 ± 0.0081
GCTTCAAGAC	1.58 ± 0.0071

Sequence	switch fluorescence ratio
GCTTCAGAGT	1 ± 0.02
GCTTCAGGAG	1.27 ± 0.024
GCTTCAGGCC	1.02 ± 0.022
GCTTCAGTAG	1.11 ± 0.02
GCTTCTGCGT	1.02 ± 0.033
GCTTCTTTTG	1.09 ± 0.15
GCTTGAAATT	0.986 ± 0.062
GCTTGCTCCG	4.46 ± 0.87
GCTTGGAGGG	0.983 ± 0.027
GCTTGGATCC	0.966 ± 0.022
GCTTGGATTG	1.01 ± 0.054
GCTTGGGTGC	1.04 ± 0.067
GCTTGTCTCG	1 ± 0.053
GCTTGTGTGA	0.999 ± 0.01
GCTTGTTACG	0.98379 ± 0.00012
GCTTGTTGGG	1.02 ± 0.038
GCTTTATGTA	0.975 ± 0.025
GCTTTCATTG	1.014 ± 0.0046
GCTTTCCTTA	0.991 ± 0.04
GCTTTGGTGA	0.991 ± 0.019
GCTTTGGTTT	0.983 ± 0.022
GCTTTGTTGG	0.984 ± 0.035
GCTTTTAGAT	0.9794 ± 0.0028
GCTTTTAGGA	1 ± 0.038
GCTTTTCATT	0.988 ± 0.038

Sequence	switch fluorescence ratio
GCTTTTCTTG	1.01 ± 0.011
GCTTTTGGAG	1.008 ± 0.0047
GCTTTTGGCC	0.971 ± 0.02
GGAAAAAGGG	1 ± 0.02
GGAAAAGAGC	0.991 ± 0.049
GGAAAAGGCT	1.02 ± 0.07
GGAAAAGGGA	1.01 ± 0.049
GGAAAAGGTT	0.9955 ± 0.0073
GGAAACACAG	1.02 ± 0.035
GGAAACAGGA	1.02 ± 0.05
GGAAACCCGC	1.14 ± 0.071
GGAAACGCGA	1.54 ± 0.093
GGAAACTGGT	1.05 ± 0.069
GGAAAGTAAA	0.982 ± 0.014
GGAAAGTCAG	0.992 ± 0.027
GGAAATACGA	1.27 ± 0.036
GGAAATCAGG	0.989 ± 0.012
GGAAATGGCG	0.981 ± 0.1
GGAAATTTGG	0.993 ± 0.037
GGAAATTTGT	1.008 ± 0.0044
GGAACACTGT	0.9955 ± 0.0077
GGAACAGAGG	0.9769 ± 0.007
GGAACATATA	1.01 ± 0.0064
GGAACCTTGG	1.023 ± 0.0094
GGAACCTTTT	1.04 ± 0.041

Sequence	switch fluorescence ratio
GGAACTCGCT	1.02 ± 0.11
GGAACTGGAG	1.07 ± 0.031
GGAAGAATAG	1.02 ± 0.038
GGAAGGAATG	0.966 ± 0.0076
GGAAGGCGGC	1.08 ± 0.071
GGAAGGGGGA	1.07 ± 0.096
GGAAGGGTCG	1.04 ± 0.022
GGAAGGGTTT	1.03 ± 0.061
GGAAGTAGCC	0.959 ± 0.038
GGAAGTGGGA	1.018 ± 0.0069
GGAAGTTCTA	0.984 ± 0.016
GGAAGTTTAA	1 ± 0.02
GGAATAAGGT	1.01 ± 0.031
GGAATAGAAA	0.994 ± 0.033
GGAATAGATG	1.026 ± 0.0015
GGAATAGGGT	0.98 ± 0.052
GGAATCCGGG	0.987 ± 0.037
GGAATCCTTG	1 ± 0.0087
GGAATCGGGC	0.9487 ± 0.0014
GGAATCGGTG	0.996 ± 0.04
GGAATGAAG	1.012 ± 0.01
GGAATGACGA	0.989 ± 0.048
GGAATGAGTA	0.997 ± 0.016
GGAATGCGGG	0.9701 ± 0.0077
GGAATGGGGA	1 ± 0.037

Sequence	switch fluorescence ratio
GGAATGGTAG	1.01 ± 0.099
GGAATGTCGG	0.962 ± 0.051
GGAATTGATG	1.04 ± 0.046
GGAATTGCA	0.958 ± 0.022
GGAATTGTCC	1.44 ± 0.69
GGAATTTGTT	1 ± 0.021
GGACAAAACT	1.08 ± 0.12
GGACAAGGGG	0.962 ± 0.038
GGACACATGC	1.1 ± 0.14
GGACATGTAG	0.965 ± 0.024
GGACCAAAAG	1.002 ± 0.0067
GGACCAGGGT	1.04 ± 0.0071
GGACCATATC	1.07 ± 0.017
GGACCGCATT	2.5 ± 0.22
GGACCGGTGA	1.01 ± 0.042
GGACCTGGTT	0.986 ± 0.013
GGACGCGTGG	1.01 ± 0.018
GGACGGAAGA	1.101 ± 0.01
GGACGGCCGC	1.06 ± 0.037
GGACGGTATT	1.08 ± 0.051
GGACGTTTTT	1.01 ± 0.015
GGACTACCGC	1.14 ± 0.019
GGACTCAGGG	1.03 ± 0.051
GGACTCTCGG	0.967 ± 0.024
GGACTTATTT	0.986 ± 0.014

Sequence	switch fluorescence ratio
GGACTTGTGA	0.997 ± 0.018
GGAGAAAGCG	0.976 ± 0.016
GGAGAATATG	1.038 ± 0.0095
GGAGACAGGA	1.04 ± 0.012
GGAGAGAAAG	0.9866 ± 0.0024
GGAGAGAGGG	1.02 ± 0.044
GGAGAGCATT	1.039 ± 0.0091
GGAGAGCGGT	1.02 ± 0.011
GGAGAGGCGT	1 ± 0.013
GGAGATAGTT	0.9806 ± 0.0057
GGAGATTGTG	0.9766 ± 0.0043
GGAGCAAGGG	3.37 ± 1.5
GGAGCAGGCG	1.04 ± 0.04
GGAGCTAGGG	1.056 ± 0.0058
GGAGGAAGGC	1.75 ± 0.58
GGAGGAAGGG	0.983 ± 0.025
GGAGGAGATA	0.995 ± 0.02
GGAGGAGTGT	0.959 ± 0.037
GGAGGATGAG	1.01 ± 0.013
GGAGGATGGG	1 ± 0.014
GGAGGCGGTG	1.048 ± 0.0039
GGAGGCTAGC	1.01 ± 0.054
GGAGGGATAA	1.1 ± 0.054
GGAGGGCTCG	0.981 ± 0.043
GGAGGGGATG	0.981 ± 0.011

Sequence	switch fluorescence ratio
GGAGGGTGAG	0.984 ± 0.014
GGAGGGTTAT	0.995 ± 0.038
GGAGGTTAAC	1.012 ± 0.0091
GGAGTAAGAT	1.3 ± 0.018
GGAGTACTGT	1.02 ± 0.013
GGAGTATGGG	0.997 ± 0.029
GGAGTCAGAA	0.995 ± 0.014
GGAGTCTAGC	0.9825 ± 0.0036
GGAGTGGGTC	1.02 ± 0.041
GGAGTGGTTG	0.999 ± 0.036
GGAGTTAAGT	0.987 ± 0.043
GGAGTTGAGG	0.98147 ± 0.00093
GGAGTTGATT	0.9808 ± 0.0015
GGAGTTGTGA	0.995 ± 0.021
GGAGTTTGGG	0.994 ± 0.039
GGAGTTTGTG	0.989 ± 0.014
GGATAAGGAC	0.984 ± 0.019
GGATAATAAG	1.01 ± 0.029
GGATAATATT	1.05 ± 0.026
GGATACCGTA	1 ± 0.085
GGATAGAGGA	1.01 ± 0.02
GGATAGGGGC	1.03 ± 0.054
GGATATAGTC	1 ± 0.036
GGATATATGG	1 ± 0.025
GGATATCTGG	1.014 ± 0.0053
